From patent US20060051295A1, “Estrogen receptor interaction with a transcription factor” (priority 2002, published 2006)

Columns and labels:
[1] = biological target: T1, ERα (Homo sapiens, UniProt P03372); experiment: Transrepression of IL-1β induced NF-κB responsive promoter-reporters, U-2 OS transiently transfected with ERα; assay type: cell-based; set-up: expressed in transfected cells; settings: ER alpha transfected, IL-1 induced
T1 sequence (P03372 1-595): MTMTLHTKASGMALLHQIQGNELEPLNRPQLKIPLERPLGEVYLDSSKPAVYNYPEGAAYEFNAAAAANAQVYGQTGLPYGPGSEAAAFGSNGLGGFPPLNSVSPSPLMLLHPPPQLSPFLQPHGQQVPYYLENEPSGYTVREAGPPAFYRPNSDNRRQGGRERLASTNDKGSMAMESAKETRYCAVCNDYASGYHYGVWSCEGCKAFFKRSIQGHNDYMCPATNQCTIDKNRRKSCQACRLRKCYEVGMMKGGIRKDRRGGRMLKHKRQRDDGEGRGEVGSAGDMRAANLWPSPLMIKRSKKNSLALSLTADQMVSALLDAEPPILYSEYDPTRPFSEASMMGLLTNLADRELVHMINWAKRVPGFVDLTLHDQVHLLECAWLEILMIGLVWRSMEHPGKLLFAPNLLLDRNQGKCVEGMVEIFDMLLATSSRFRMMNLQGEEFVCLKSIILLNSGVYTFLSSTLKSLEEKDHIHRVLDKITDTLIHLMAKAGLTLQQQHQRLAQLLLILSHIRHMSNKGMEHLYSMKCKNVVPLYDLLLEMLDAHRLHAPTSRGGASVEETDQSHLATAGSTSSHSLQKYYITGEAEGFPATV
Source text: pKCRE-ERα, pKCRE-ERβ and pNGV1-GR contain the human wild-type estrogen receptor α (ERα), ERβ or GR respectively under control of the SV40 promoter. The pCMV4-c-Rel expression vector was produced by cloning of the coding region of c-Rel into the pCMV4 vector (Andersson et al., 1989). pGL3-ELAM, pGL3-VCAM and pGL3-ICAM have been constructed based on PCR using the sequences as outlined in appendix 1. The luciferase reporter plasmid 3*NF-κB-TK was constructed by inserting three repeats of the NF-κB binding site from the ICAM promoter (van de Stolpe et al.; J. Biol Chem. 269: 6185-6192. 1994) in front of the herpes simplex virus thymidine kinase (HSV-TK) promoter. The TK promoter was cloned into the Bgl II-site of pGL3-basic (Promega). The triple repeat of NF-κB binding sites was constructed by annealing the oligonucleotide primers 5′-[…]-3′ and 5′-[…]-3′ followed by PRC amplification and subcloning in the pCR™2.1 vector. The insert was excised using HindIII, blunted with Klenow DNA polymerase and ligated into the SmaI site of pGL3-tk-luc. 4xERE-TATA Luc (plasmid nr. 460) contains four repeats of an estrogen responsive element followed by a TATA box and a luciferase gene. The pSV-β-Galactosidase (pSVβ) control vector (Promega) served as a positive control vector for monitoring transfection efficiencies of mammalian cells. The SV40 early promoter and enhancer drive transcription of the LacZ gene which encodes the β-Galactosidase enzyme. The yeast 2-hybrid constructs pGAD424-ERα, pGAD424-ERαdAB and pGAD424-ERβ were constructed by cloning respectively the human ERα, the ERα without the AB domain and the human ERβ cDNA in pGAD424. pGAD424-ERα LBD was constructed by cloning the LBD of ERα, obtained by PCR, in the EcoRI and SalI sites of pGAD424 vector. pGBT9-c-Rel was constructed by cloning the c-Rel fragment, obtained by PCR on pCMV4-c-Rel in the EcoRI and BamHI sites of pGBT9. The p65/RelA cDNA was obtained by PCR on the pCMV4-p65.
For transient transfections, cells were seeded in 6-well plates (2.10^5 cells/well). After two or three days the cells were transfected with reporter, expression vectors and β-galactosidase control vector. Two different experimental settings were used. For testing transrepression of IL-1β induced promoter activity, cells were transfected with 1 μg reporter construct, 1 μg expression vector (containing either ERα, ERβ or GR), and 0.25 μg of β-galactosidase control plasmid.

[2] = biological target: T1, ERα; experiment: NF-κB-responsive reporters in ECV304-ERα cells, IL-1 induced; assay type: cell-based; set-up: expressed in transfected cells; settings: ECV304-ERα cells (A)
Source text: This example describes an assay, based on the E-selectin or VCAM promoter in combination with ERα in the T24/ECV cell line. Note that for the ER/NF-κB transrepression assay the ECV304 cell line was used, which was believed to be the only endothelial cell line available that was suitable for producing stable ERα expressing clones. At a later stage ATCC reported that the ECV304 cells were no endothelial cells but, instead, were T24 bladder carcinoma cells. In order to enhance the cytokine induction and amount of repression by estrogens, multiple copies of NF-κB responsive regions of the E-Selectin and VCAM promoters were used to construct new reporters named ELAM1a, ELAM2, ELAM-HMG, VCAM1-2, VCAM2, and VCAM3 (for reporter details see appendix 1).
ECV304-ERα cells stably express ERα and endogenous c-Rel, whereas COS cells were transiently transfected with ERα, and, where indicated, c-Rel. Both cell types were co-transfected with the indicated E-selectin (ELAM) or VCAM promoter derived reporters.
Human osteosarcoma U-2 OS (HTB-96), monkey kidney COS-1 (CRL-1650) and human ECV304 (CRL-1998) cells have been obtained from ATCC (American Type Culture collection). ECV304 cells were sold by ATCC as human endothelial cells, however at a later stage ATCC informed us that this cell line was in fact the human bladder epithelial carcinoma cell line T24. Therefore, these cells are called T24/ECV in this report. ECV304/T24(-ERα), U-2 OS and COS-7 cells were grown in a 1:1 mixture of phenol red free Dulbecco's modified medium (DMEM) and Ham's F12 medium (=M505), supplemented with 10% fetal calf serum (FCS). Experiments were performed in M505+10% FCTS (fetal calf serum treated with dextran-coated charcoal to deplete serum from steroid activity).
The six NF-κB responsive reporters pHGL3-ELAM 1a, pHGL3-ELAM 2, pHGL3-ELAM HMG, pHGL3-VCAM 1-2, pHGL3-VCAM 2 and pHGL3-VCAM 3 (plasmid nr. 1921-1926 respectively) were constructed by ligating annealed primers in the Kpn I and Sac I sites of pHGL3-TATA. The primers were based on the NF-κB-RE sequences in the ELAM and the VCAM promoter (see Appendix 1). Several copies of the NF-κB-RE's were cloned in order the gain a higher absolute luciferase signal. The ELAM HMG construct contains a double repeat, while the other constructs contain three NF-κB -RE's. For primer and reporter sequences, see appendix 1.
For transient transfections, cells were seeded in 6-well plates (2.10^5 cells/well). After two or three days the cells were transfected with reporter, expression vectors and β-galactosidase control vector. Two different experimental settings were used. For testing transrepression of IL-1β induced promoter activity, cells were transfected with 1 μg reporter construct, 1 μg expression vector (containing either ERα, ERβ or GR), and 0.25 μg of β-galactosidase control plasmid. For testing transrepression in combination with c-Rel or ReLA overexpression, cells were transfected with 1 μg reporter construct, 1 μg expression vector (containing either ERα, ERβ or GR) and 0.1 or 1.0 μg expression vector containing c-Rel or RelA and 0.25 μg of β-galactosidase control vector. Equivalent amounts of DNA were obtained by adding the appropriate expression vector that lacks an insert. Transient transfection was performed using lipofectin reagent (Life Technologies). […] The transfected cells were incubated overnight with test compounds prior to cell lysis. Measurement of luciferase and P-galactosidase activity were performed using respectively the luciferase assay system (Promega) and Galacto-light plus (Tropix) according to the manufacturers' protocols and measured on the Victor 1420 multilabel counter, Wallac.

[3] = biological target: T1, ERα; experiment: Stably transfected ECV304/T24-ERα-ELAM-HMG and -VCAM3 clones, luciferase activity; settings: stable ECV304/T24-ERα clone, IL1 induced

IL-1: cytokine used to induce NF-κB responsive reporter activity
luciferase activity, 3*NFkB-reporter [1]: 1836839
luciferase activity, ELAM+ reporter [1]: 99757
luciferase activity, ICAM reporter [1]: 908172
luciferase activity, VCAM reporter [1]: 30296
luciferase activity, ELAM1a reporter [2]: 1818 cps
luciferase activity, ELAM2 reporter [2]: 39383 cps
luciferase activity, ELAM− reporter [2]: 160167 cps
luciferase activity, VCAM1-2 reporter [2]: 3741 cps
luciferase activity, VCAM2 reporter [2]: 19464 cps
luciferase activity, VCAM3 reporter [2]: 22767 cps
luciferase activity, VCAM reporter [2]: 3099 cps
luciferase activity, ELAM-HMG clone 2B8 [3]: 8410
luciferase activity, ELAM-HMG clone 2F4 [3]: 1566
luciferase activity, VCAM3 clone 3A10 [3]: 3907
luciferase activity, VCAM3 clone 4B6 [3]: 2122
